Test results reported in US20260007756A1, “COMPOUND AND USE THEREOF” (COHERENT BIOPHARMA (SUZHOU) LIMITED, priority 2022, published 2026).
In brackets after ≈: the same amount, converted by molar mass. Like-named read-outs stand apart in the source and are kept apart here.

Legend:
C4-2 = conditions: C4-2, 72 h, CellTiter-Glo
Method: Cells were prepared in advance, trypsinized, collected, counted, diluted to 1.5×10^4 cells/mL in a complete cell culture medium, and plated in 96-well plates. The diluted cell suspension was added at 100 μL/well, and negative and blank control wells were set on each plate. The 96-well plates with the added cells were incubated overnight at 37° C. in a 5% CO2 incubator.
Samples were serially diluted with medium (serially 3-fold diluted from 10 μM) to 9 concentrations. The medium in the plates was discarded, and the drug solutions were added at 100 μL per well to a 96-well plate in triplicate. Negative and blank controls were set. The plates were incubated at 37° C. for 72 h in a 5% CO2 incubator.
The CellTiter-Glo buffer was thawed and warmed to room temperature, and the CellTiter-Glo substrate was warmed to room temperature. The CellTiter-Glo buffer was added to the flask containing CellTiter-Glo substrate to dissolve the substrate, thereby preparing a CellTiter-Glo working solution, which was then vortexed slowly to complete dissolution. The cell culture plates were equilibrated at room temperature for 30 min, before the CellTiter-Glo working solution was added at 50 μL/well (about half the volume of cell culture medium in each well). The plate was covered by aluminum foil to keep out of light. The culture plate was shaken on an orbital shaker for 2 min to induce cell lysis. The culture plate was left to stand at room temperature for 10 min to stabilize the luminescence signals. The luminescence signal was detected on a microplate reader (Molecular Devices SpectraMax iD5).
Four-parameter curves were fitted using GraphPad Prism 8.0.2 to give IC50 values.

cathepsin B-human liver = cathepsin B-human liver (Homo sapiens, UniProt P07858); conditions: 37° C.
Method: • 1) The conjugate compounds were prepared into 500 μg/mL stock solutions with 0.1% TFA-acetonitrile water (1:1); • 2) 60 μL of 500 μg/mL compound stock solution was added to 536 μL of 50 mM NaOAc (containing 1 mM EDTA+10 mM Cys), before 4 μL of cathepsin B (CB enzyme) was added, and the mixture was well mixed by gentle shaking. • 3) The cleavage reaction system in step 2) was transferred to a thermostatic incubator at 37° C. for 0 h, 1 h, 2 h, 4 h, or 24 h of incubation. Samples were taken and loaded at various time points for LC-MS analysis.

22RV1 = type: cell-based, human; conditions: 22RV1, 72 h, CellTiter-Glo
Source text: (§1) Negative and blank controls were set.

MDA-MB-231 = type: cell-based, human; conditions: MDA-MB-231, 72 h, CellTiter-Glo
Source text: as §1

Plasma stability study 2 = type: in vitro ADME; conditions: mouse plasma, 37° C.; for remaining at 0.5 h, 100 μg/mL / remaining at 1 h, 100 μg/mL / remaining at 2 h, 100 μg/mL / remaining at 4 h, 100 μg/mL / remaining at 6 h, 100 μg/mL: read-out: Residual rate of principal component
Solubility study in PBS = type: physicochemical; conditions: aqueous buffer, thermodynamic from solid; PBS (pH 7.2 to 7.4); read-out: Solubility, concentration
Method: The mixture was vortexed for 2 min until the solid was dissolved. The solubility was calculated as: C=m/V, C: concentration, m: sample weight, V: PBS total volume.

sulfatase [1] = conditions: PBS pH 7.4, 37° C.
Method: (§3) • 1) The compounds were formulated into 500 μg/mL stock solutions with PBS (pH 7.4); • 2) 60 μL of 500 μg/mL compound stock solution was added to 420 μL PBS (pH 7.4), before 60 μL of 0.2 U/mL plasmin (or 60 μL of 0.5 U/mL sulfatase) was added, and the mixture was well mixed by gentle shaking; • 3) The cleavage reaction system in step 2) was transferred to a thermostatic incubator at 37° C. for 0 h, 1 h, 2 h, 4 h, or 24 h of incubation. Samples were taken and loaded at various time points for LC-MS analysis.

sulfatase [2] = test: in vitro; conditions: isolated sulfatase, pH 7.4
Method: as §3

LNCaP = test: Expansion inhibition of tumor cells (Example 9, CellTiter-Glo); type: cell-based, human; conditions: 72 h
Source text: (§2) Information on cell lines: LNCaP (human prostate cancer cell) and VCaP (human prostate cancer cell)
as §1

VCaP = test: as above; type: cell-based, human; conditions: 72 h
Source text: as §2, §1

| SMILES | IC50 (C4-2) [nM] | IC50 (22RV1) [nM] | IC50 (MDA-MB-231) [nM] | CR20274 release rate (actual release/theoretical release) (Plasma stability study 2; 0 h) [%] | Residual rate of principal component (Plasma stability study 2; 0 h) [%] | CR20274 release rate (actual release/theoretical release) (Plasma stability study 2; 0.5 h) [%] | remaining at 0.5 h, 100 μg/mL (Plasma stability study 2; 0.5 h) [%] | CR20274 release rate (actual release/theoretical release) (Plasma stability study 2; 1 h) [%] | remaining at 1 h, 100 μg/mL (Plasma stability study 2; 1 h) [%] | CR20274 release rate (actual release/theoretical release) (Plasma stability study 2; 2 h) [%] | remaining at 2 h, 100 μg/mL (Plasma stability study 2; 2 h) [%] | CR20274 release rate (actual release/theoretical release) (Plasma stability study 2; 4 h) [%] | remaining at 4 h, 100 μg/mL (Plasma stability study 2; 4 h) [%] | CR20274 release rate (actual release/theoretical release) (Plasma stability study 2; 6 h) [%] | remaining at 6 h, 100 μg/mL (Plasma stability study 2; 6 h) [%] | CR20274 release rate (actual release/theoretical release) (Plasma stability study 2; 24 h) [%] | Residual rate of principal component (Plasma stability study 2; 24 h) [%] | solubility at 2 min (Solubility study in PBS) [µg/mL] | IC50 (LNCaP) [nM] | IC50 (VCaP) [nM] | further results |
| --- | --- | --- | --- | --- | --- | --- | --- | --- | --- | --- | --- | --- | --- | --- | --- | --- | --- | --- | --- | --- | --- |
| CC[C@@H]1C(=O)N(C)c2cnc(Nc3ccc(-c4cn([C@H]5CC[C@@H](N(CCOCCC#Cc6cccc7c6CN(C6CCC(=O)NC6=O)C7=O)C(=O)OCc6ccc(NC(=O)[C@H](CCCNC(N)=O)NC(=O)[C@@H](NC(=O)[C@H](CCC(=O)O)NC(=O)COCCOCCn7cc(C[C@H](NC(=O)[C@H](CCCCN)NC(=O)[C@H](CC(=O)O)NC(=O)[C@H](CC(=O)O)NC(=O)Cc8ccc(CNC(=O)NCCCC[C@H](NC(=O)N[C@@H](CCC(=O)O)C(=O)O)C(=O)O)cc8)C(=O)N[C@@H](CCCCNC(=O)CC[C@H](NC(=O)c8ccc(NCc9cnc%10[nH]c(N)nc(=O)c%10n9)cc8)C(=O)O)C(N)=O)nn7)C(C)C)cc6)CC5)nn4)cc3OC)nc2N1C1CCCC1 (stereo partly shown) [CR202V4] | 84.7 | 222 | 234 | −0.12 | 84.13 | 0.04 | 75.9 | 0.11 | 74.3 | 0.17 | 78.2 | 0.30 | 61.3 | 0.42 | 70.4 | 2.62 | 1.36 | 8000 (≈ 2580 µM) |  |  | CR20274 release rate of compounds after cleavage (cathepsin B-human liver; 0 h): 0%; Principal component residue of compounds after cleavage (cathepsin B-human liver; 0 h): 100.00%; CR20274 release rate of compounds after cleavage (cathepsin B-human liver; 1 h): 100%; Principal component residue of compounds after cleavage (cathepsin B-human liver; 1 h): 0.00%; CR20274 release rate of compounds after cleavage (cathepsin B-human liver; 2 h): 100%; Principal component residue of compounds after cleavage (cathepsin B-human liver; 2 h): 0.00%; CR20274 release rate of compounds after cleavage (cathepsin B-human liver; 4 h): 100%; Principal component residue of compounds after cleavage (cathepsin B-human liver; 4 h): 0.00%; CR20274 release rate of compounds after cleavage (cathepsin B-human liver; 24 h): 100%; Principal component residue of compounds after cleavage (cathepsin B-human liver; 24 h): 0.00% |
| CC[C@@H]1C(=O)N(C)c2cnc(Nc3ccc(-c4cn([C@H]5CC[C@@H](N(CCOCCC#Cc6cccc7c6CN(C6CCC(=O)NC6=O)C7=O)C(=O)OC(Cc6cn(CCOCCOCCNC(=O)COCCOCCn7cc(C[C@H](NC(=O)[C@H](CCCCN)NC(=O)[C@H](CC(=O)O)NC(=O)[C@H](CC(=O)O)NC(=O)Cc8ccc(CNC(=O)NCCCC[C@H](NC(=O)N[C@@H](CCC(=O)O)C(=O)O)C(=O)O)cc8)C(=O)N[C@@H](CCCCNC(=O)CC[C@H](NC(=O)c8ccc(NCc9cnc%10[nH]c(N)nc(=O)c%10n9)cc8)C(=O)O)C(N)=O)nn7)nn6)c6ccc(OS(=O)(=O)O)c([N+](=O)[O-])c6)CC5)nn4)cc3OC)nc2N1C1CCCC1 (stereo partly shown) [CR202W1] | 43.2 | 112 | 120 | 0.68 | 105.30 | 0.63 | 89.4 | 0.83 | 103 | 0.80 | 105 | 0.96 | 108 | 0.88 | 84.8 | 2.82 | −2.67 | 8100 (≈ 2650 µM) |  |  | CR20274 release rate of compounds after cleavage (sulfatase [1]; 0 h): 0%; Principal component residue of compounds after cleavage (sulfatase [1]; 0 h): 97%; CR20274 release rate of compounds after cleavage (sulfatase [1]; 1 h): 9%; CR20274 release rate of compounds after cleavage (sulfatase [1]; 2 h): 15%; CR20274 release rate of compounds after cleavage (sulfatase [1]; 4 h): 27%; CR20274 release rate of compounds after cleavage (sulfatase [1]; 24 h): 56%; remaining at 1 h, 55.6 µg/mL (sulfatase [2]): 89%; remaining at 2 h, 55.6 µg/mL (sulfatase [2]): 80%; remaining at 4 h, 55.6 µg/mL (sulfatase [2]): 69%; remaining at 24 h, 55.6 µg/mL (sulfatase [2]): 37% |
| Cc1ncsc1-c1ccc(CNC(=O)[C@@H]2C[C@@H](OC(=O)OCc3ccc(NC(=O)[C@H](CCCNC(N)=O)NC(=O)[C@@H](NC(=O)COCCOCCn4cc(C[C@H](NC(=O)[C@H](CCCCN)NC(=O)[C@H](CC(=O)O)NC(=O)[C@H](CC(=O)O)NC(=O)Cc5ccc(CNC(=O)NCCCC[C@H](NC(=O)N[C@@H](CCC(=O)O)C(=O)O)C(=O)O)cc5)C(=O)N[C@@H](CCCCNC(=O)CC[C@H](NC(=O)c5ccc(NCc6cnc7[nH]c(N)nc(=O)c7n6)cc5)C(=O)O)C(N)=O)nn4)C(C)C)cc3)CN2C(=O)[C@@H](NC(=O)CCCCCCCCCCNC(=O)c2cc3c(cc2CS(C)(=O)=O)-c2cn(C)c(=O)c4[nH]cc(c24)CN3c2ncc(F)cc2F)C(C)(C)C)cc1 [CR202W8] |  |  |  |  |  |  |  |  |  |  |  |  |  |  |  |  |  |  | 5.3 | 2.7 |  |
| Cc1ncsc1-c1ccc(CNC(=O)[C@@H]2C[C@@H](O)CN2C(=O)[C@@H](NC(=O)COCCCCOc2ccc(-c3ccc(N4C(=S)N(c5ccc(C#N)c(C(F)(F)F)c5)C(=O)C4(C)C)cc3)cc2)C(C)(C)C)cc1 [CR202Z5, ARCC-4] |  |  |  |  |  |  |  |  |  |  |  |  |  |  |  |  |  |  |  |  | IC50 (LNCaP; Homo sapiens): 373 nM; IC50 (VCaP; Homo sapiens): 183 nM |
| Cc1ncsc1-c1ccc(C(C)NC(=O)C2CC(O)CN2C(=O)C(NC(=O)COCCCOCCNC(=O)CC2N=C(c3ccc(Cl)cc3)c3c(sc(C)c3C)-n3c(C)nnc32)C(C)(C)C)cc1 (stereo not shown) [CR202ES, ARV-771] |  |  |  |  |  |  |  |  |  |  |  |  |  |  |  |  |  |  |  |  | IC50 (LNCaP; Homo sapiens): 8.7 nM; IC50 (VCaP; Homo sapiens): 10.9 nM |
| Cc1ncsc1-c1ccc([C@H](CC(=O)N2CCC(N3CCC(C#Cc4ccc(C(=O)NC5C(C)(C)C(Oc6ccc(C#N)c(Cl)c6)C5(C)C)cc4)CC3)CC2)NC(=O)[C@@H]2C[C@@H](O)CN2C(=O)[C@@H](NC(=O)C2(F)CC2)C(C)(C)C)cc1 (stereo partly shown) [CR202Z9, ARD-69] |  |  |  |  |  |  |  |  |  |  |  |  |  |  |  |  |  |  | 418 | 12.4 |  |
